Test results reported in doi:10.1101/2020.01.13.905216 (bioRxiv, 2020).

Molecular target: the molecule itself
Test: cryo-EM structure

B1: Thermophilic Factor 55 β subunit (TF55β) chaperonin complex from Sulfolobus solfataricus (natural protein, S. solfataricus, UniProt Q9V2T8 1-554, looked up)
chain: MATATVATTPEGIPVIILKEGSSRTYGKEALRANIAAVKAIEEALKSTYGPRGMDKMLVDSLGDITITNDGATILDKMDLQHPTGKLLVQIAKGQDEETADGTKTAVILAGELAKKAEDLLYKEIHPTIIVSGYKKAEEIALKTIQEIAQPVTINDTDVLRKVALTSLGSKAVAGAREYLADLVVKAVAQVAELRGDKWYVDLDNVQIVKKHGGSVNDTQLVYGIVVDKEVVHPGMPKRIENAKIALLDASLEVEKPELDAEIRINDPTQMHKFLEEEENILKEKVDKIAATGANVVICQKGIDEVAQHYLAKKGILAVRRAKKSDLEKLARATGGRVISNIDELTSQDLGYAALVEERKVGEDKMVFVEGAKNPKSVSILIRGGLERVVDETERALRDALGTVADVIRDGRAVAGGGAVEIEIAKRLRKYAPQVGGKEQLAIEAYANAIEGLIMILAENAGLDPIDKLMQLRSLHENETNKWYGLNLFTGNPEDMWKLGVIEPALVKMNAVKAATEAVTLVLRIDDIVAAGKKSGSEPSGKKEKDKEEKSSED
In the case of B1, the “stoichiometry N” value is reported as 18.
